Five substances from paper PMC8907193, “The YΦ motif defines the structure-activity relationships of human 20S proteasome activators” (Nature Communications, 2022) can be followed below.

Read-outs that look alike come from different tables or passages of the source.

Test [1] concerns the target human 20S proteasome (human) (UniProt P60900).
In test [2] the target is biotinylated human 20S proteasome (human) (UniProt P60900). Put plainly: BLI. (In BLI a coated tip is dipped into the sample, and binding shifts an interference pattern.)

On to PA26^YA, for which, in test [1], the EC50 of stimulation of h20S activity is above 3 µM and the stimulation of h20S activity, loss against PA26^YY turned out to be 80 % reduction.

By Kd is commonly meant a measure of binding affinity in units of concentration. A lower Kd goes with tighter binding. For orientation: koff means a measure of how fast the partners let go of each other. Low values mean a long-lived complex, high ones a short-lived complex. In test [2], PA26^AY (from UniProt Q9U8G2) gave a Kd of 0.00028 µM and a koff of 0.0004 s⁻¹.

In test [2], PA26^YA (from UniProt Q9U8G2) gave a Kd of 0.036 µM and a koff of 0.011 s⁻¹.

Regarding PA26^AY, in test [1], the EC50 of stimulation of h20S activity was 0.0083 µM.

“PA26^E102A (disabled-loop mutant) (from UniProt Q9U8G2)”: the Kd in test [2] (natural protein) is above 0.1 µM.
